Results published in IntAct's records for PubMed 7651520.

Molecular target: ste20_yeast STE20 (UniProt Q03497)
Sequence (Q03497 whole entry): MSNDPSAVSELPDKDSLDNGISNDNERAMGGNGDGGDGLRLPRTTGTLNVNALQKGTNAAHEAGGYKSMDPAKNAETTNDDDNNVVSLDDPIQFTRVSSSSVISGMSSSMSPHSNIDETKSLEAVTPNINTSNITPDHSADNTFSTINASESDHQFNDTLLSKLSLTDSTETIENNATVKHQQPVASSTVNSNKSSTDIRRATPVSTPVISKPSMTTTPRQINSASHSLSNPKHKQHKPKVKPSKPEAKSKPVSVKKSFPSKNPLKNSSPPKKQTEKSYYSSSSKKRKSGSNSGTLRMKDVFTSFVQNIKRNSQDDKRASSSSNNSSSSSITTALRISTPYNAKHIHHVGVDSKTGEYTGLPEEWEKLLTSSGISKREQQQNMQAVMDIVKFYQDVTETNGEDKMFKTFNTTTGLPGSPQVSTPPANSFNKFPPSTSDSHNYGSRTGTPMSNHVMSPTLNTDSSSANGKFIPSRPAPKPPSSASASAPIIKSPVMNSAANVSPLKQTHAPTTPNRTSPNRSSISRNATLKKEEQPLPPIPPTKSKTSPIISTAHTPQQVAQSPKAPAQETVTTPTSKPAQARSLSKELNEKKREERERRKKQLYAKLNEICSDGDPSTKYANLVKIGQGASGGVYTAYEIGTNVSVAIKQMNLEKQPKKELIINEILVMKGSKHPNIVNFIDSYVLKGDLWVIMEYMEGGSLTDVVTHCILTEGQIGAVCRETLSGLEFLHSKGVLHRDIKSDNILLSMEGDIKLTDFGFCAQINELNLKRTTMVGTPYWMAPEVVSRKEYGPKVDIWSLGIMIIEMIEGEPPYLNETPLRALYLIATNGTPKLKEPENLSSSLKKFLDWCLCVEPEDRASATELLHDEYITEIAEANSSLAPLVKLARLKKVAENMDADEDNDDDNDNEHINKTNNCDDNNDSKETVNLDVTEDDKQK

Cell division control protein 42 (Saccharomyces cerevisiae), P19073 C188S, sequence (P19073 whole entry C188S): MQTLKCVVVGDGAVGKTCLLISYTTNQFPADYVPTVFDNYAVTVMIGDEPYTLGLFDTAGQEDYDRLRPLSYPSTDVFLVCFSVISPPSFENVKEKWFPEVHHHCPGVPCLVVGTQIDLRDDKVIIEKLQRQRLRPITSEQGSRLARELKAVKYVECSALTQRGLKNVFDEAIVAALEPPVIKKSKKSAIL
Cell division control protein 42 (Saccharomyces cerevisiae), P19073 G12V;C188S, sequence (P19073 whole entry G12V/C188S): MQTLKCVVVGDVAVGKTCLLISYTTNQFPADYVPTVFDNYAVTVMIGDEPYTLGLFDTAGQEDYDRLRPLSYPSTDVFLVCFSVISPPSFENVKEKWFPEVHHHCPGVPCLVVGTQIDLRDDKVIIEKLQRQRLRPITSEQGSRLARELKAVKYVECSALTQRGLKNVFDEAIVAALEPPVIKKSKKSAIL
Cell division control protein 42 (Saccharomyces cerevisiae), P19073 Q61L;C188S, sequence (P19073 whole entry Q61L/C188S): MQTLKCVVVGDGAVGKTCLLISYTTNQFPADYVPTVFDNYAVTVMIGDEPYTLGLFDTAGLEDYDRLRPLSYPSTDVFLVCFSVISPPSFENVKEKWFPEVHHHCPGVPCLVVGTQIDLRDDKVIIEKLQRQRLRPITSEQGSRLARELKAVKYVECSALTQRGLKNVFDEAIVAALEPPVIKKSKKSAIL

Row | Substance | effect of a mutation on the interaction
1 | Cell division control protein 42 (Saccharomyces cerevisiae), P19073 C188S | increasing interaction
2 | Cell division control protein 42 (Saccharomyces cerevisiae), P19073 G12V;C188S | increasing interaction
3 | Cell division control protein 42 (Saccharomyces cerevisiae), P19073 Q61L;C188S | increasing interaction
